Assay results: article PMC9638917, “Non-canonical Staphylococcus aureus pathogenicity island repression”

Key:
[1] = target: SaPI1 Stl repressor L201E mutant (Stl^(SaPI1 L201E)), expressed alone (Staphylococcus aureus (pathogenicity island SaPI1)); assay: SEC-MALS; 2 mg/ml, Stl alone or in complex with Sri; 50 mM Tris-HCl pH 7.5, 250 mM NaCl, 5 mM MgCl2; Protein KW403 column (Shodex), 0.4 ml/min
[2] = target: SaPI1 Stl repressor L201E mutant (Stl^(SaPI1 L201E)), untagged, co-expressed with His6-Sri (Staphylococcus aureus (pathogenicity island SaPI1)); assay: crystal structure; 80α Sri-Stl^(SaPI1 L201E), His6-tag of Sri removed; sitting drop, 15 °C, 0.1 M Tris-HCl pH 8.5, 22% PEG350; molecular replacement, 2.97 Å
[3] = target: SaPI1 Stl repressor (Stl^SaPI1), untagged, co-expressed with His6-Sri (Staphylococcus aureus (pathogenicity island SaPI1)); assay: crystal structure; 80α Sri-Stl^SaPI1 SeMet derivative, His6-tag of Sri removed; sitting drop, 15 °C, 0.4 M ammonium phosphate, 25% PEG200; SAD, 2.9 Å
[4] = target: SaPI1 Stl repressor (Stl^SaPI1), untagged, co-expressed with His6-Sri (Staphylococcus aureus (pathogenicity island SaPI1)); assay: SEC-SAXS; 10.0 mg/ml Stl^SaPI1 and 6.5 mg/ml Stl^SaPI1-Sri (His6 tag on Sri); Superdex 200 Increase 3.2, 10 mM Tris pH 8, 1% (w/v) sucrose; mass by Bayesian inference
[5] = target: SaPI1 Stl repressor (Stl^SaPI1), untagged, co-expressed with His6-Sri (Staphylococcus aureus (pathogenicity island SaPI1)); assay: SEC-MALS; 2 mg/ml, Stl alone or in complex with Sri; 50 mM Tris-HCl pH 7.5, 250 mM NaCl, 5 mM MgCl2; Protein KW403 column (Shodex), 0.4 ml/min
[6] = target: SaPI1 Stl repressor (Stl^SaPI1), expressed alone with an N-terminal His6-tag and TEV site (Staphylococcus aureus (pathogenicity island SaPI1)); assay: SEC-SAXS; 10.0 mg/ml Stl^SaPI1 and 6.5 mg/ml Stl^SaPI1-Sri (His6 tag on Sri); Superdex 200 Increase 3.2, 10 mM Tris pH 8, 1% (w/v) sucrose; mass by Bayesian inference
[7] = target: SaPI1 Stl repressor (Stl^SaPI1), expressed alone with an N-terminal His6-tag and TEV site (Staphylococcus aureus (pathogenicity island SaPI1)); assay: SEC-MALS; 2 mg/ml, Stl alone or in complex with Sri; 50 mM Tris-HCl pH 7.5, 250 mM NaCl, 5 mM MgCl2; Protein KW403 column (Shodex), 0.4 ml/min
[8] = target: StlSaPI1 (Staphylococcus aureus pathogenicity …, UniProt O54475 1-247); assay: EMSA; two complex species; BLI: 50 mM Tris-HCl pH 8, 300 mM NaCl, 5 mM MgCl2, 50 uM EDTA, 0.005% Tween, 25 C; EMSA: 50 mM Tris-HCl pH 8, 5 mM MgCl2, 1 mM DTT, 0.1 mM EDTA, 5% glycerol, 1; settings: protein: recombinant; tags: N-terminal His6 + TEV site; chain copies: 4; near blunt as printed

SaPI1 Stl repressor L201E mutant (Stl^(SaPI1 L201E)), expressed alone (natural protein)
stoichiometry N [1]: 2

SaPI1 Stl repressor L201E mutant (Stl^(SaPI1 L201E)), untagged, co-expressed with His6-Sri (natural protein)
stoichiometry N [2]: 2

SaPI1 Stl repressor (Stl^SaPI1), untagged, co-expressed with His6-Sri (natural protein)
stoichiometry N [3]: 4 | stoichiometry N [4]: 4 | stoichiometry N [5]: 4

SaPI1 Stl repressor (Stl^SaPI1), expressed alone with an N-terminal His6-tag and TEV site (natural protein)
stoichiometry N [6]: 4 | stoichiometry N [7]: 4

B1: Operator 1-4 (dsDNA)
DNA 1: GGATAAGTTGTACTTTGAGTACAATATTTTAAAAAATGAAAAAAAAAAAAGAAGTGTGTAATATTTGTTTAAAAAACAAAAAAAAAAAAAGTACTTGTAGTACTAAAAGAAC
DNA 2: GGTTCTTTTAGTACTACAAGTACTTTTTTTTTTTTTGTTTTTTAAACAAATATTACACACTTCTTTTTTTTTTTTCATTTTTTAAAATATTGTACTCAAAGTACAACTTATCC
binding result [8]: binds
